Experimental data taken from patent US20230099801A1, “RESTORATION OF T CELL ACTIVITY VIA THE CD39/CD73 AXIS” (INNATE PHARMA, priority 2017, published 2023).
“Also recorded” adds a separate entry of the source.

How the values were obtained:
human CD39 = biological target: T1, human CD39 (Homo sapiens, UniProt P49961); test: ELISA titration on recombinant human CD39; type: binding
T1 sequence (P49961 1-510): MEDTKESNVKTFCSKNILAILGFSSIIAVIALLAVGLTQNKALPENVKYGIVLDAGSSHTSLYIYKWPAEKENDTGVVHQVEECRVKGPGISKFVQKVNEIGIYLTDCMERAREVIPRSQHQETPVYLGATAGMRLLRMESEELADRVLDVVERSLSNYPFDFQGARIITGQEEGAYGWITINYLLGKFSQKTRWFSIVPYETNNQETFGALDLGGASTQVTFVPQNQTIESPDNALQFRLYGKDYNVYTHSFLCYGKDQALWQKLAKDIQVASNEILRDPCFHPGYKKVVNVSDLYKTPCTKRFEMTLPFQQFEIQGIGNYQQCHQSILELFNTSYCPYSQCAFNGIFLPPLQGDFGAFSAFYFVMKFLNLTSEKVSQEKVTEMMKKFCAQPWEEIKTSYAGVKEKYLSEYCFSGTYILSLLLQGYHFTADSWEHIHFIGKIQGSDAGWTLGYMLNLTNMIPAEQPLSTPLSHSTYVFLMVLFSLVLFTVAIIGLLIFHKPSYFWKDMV
Method: (§1) Wells were washed in TBS Tween 20, and further saturated 2H at RT in TBS Blocking buffer. Dose range concentration of primary antibody was incubated in TBS blocking buffer for 2h at RT. Wells were washed in TBS Tween 20. […] Optical density was measured on Enspire™ at OD=450.

[1] = biological target: T2, Human CD39-L1 (NTPDase2, ENTPD2) (Homo sapiens, UniProt Q9Y5L3); test: ELISA titration on CD39-L1; type: binding
T2 sequence (Q9Y5L3 1-472 isoform Q9Y5L3-2): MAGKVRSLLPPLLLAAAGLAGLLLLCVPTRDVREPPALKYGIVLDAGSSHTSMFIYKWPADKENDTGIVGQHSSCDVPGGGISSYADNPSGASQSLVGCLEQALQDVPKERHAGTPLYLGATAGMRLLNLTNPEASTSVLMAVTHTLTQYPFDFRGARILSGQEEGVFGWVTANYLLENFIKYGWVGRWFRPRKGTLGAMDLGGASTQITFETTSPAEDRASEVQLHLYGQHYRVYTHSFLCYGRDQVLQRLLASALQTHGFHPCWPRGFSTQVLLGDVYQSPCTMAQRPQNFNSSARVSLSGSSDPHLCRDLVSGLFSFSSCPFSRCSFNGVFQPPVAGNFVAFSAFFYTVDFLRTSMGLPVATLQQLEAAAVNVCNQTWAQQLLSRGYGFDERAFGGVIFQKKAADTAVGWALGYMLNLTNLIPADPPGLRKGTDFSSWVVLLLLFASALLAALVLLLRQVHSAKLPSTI
Method: as §1

CD4 T cells = test: T cell proliferation assay in presence of added ATP, CD4 T cells; type: cell-based, human
Method: (§2) Peripheral blood from healthy donors was obtained from EFS, and mononuclear cells were isolated on a Ficoll gradient. Lymphocytes were further enriched on a 52% Percoll gradient by collection of the cell pellets and stained with a Cell Trace dye (Thermofisher) following the TDS provided by the manufacturer. […] Inhibition of T cell proliferation was achieved by addition of ATP (200 μM). T cell proliferation and ability of Abs to block immune suppressive effect of AMP were assessed by flow cytometry by quantifying the dye dilution in the proliferating T cell subset.
(§3) Percentage of proliferating T cells vs. anti-CD73 Ab concentration is plotted in graphs using GraphPad Prism software.

CD8 T cells = test: T cell proliferation assay in presence of added ATP, CD8 T cells; type: cell-based, human
Method: as §2, §3

[2] = concentrations of 0.1 μg/ml and 1 μg/ml, added ATP

binding to human CD39 in ELISA (human CD39): bound; also recorded: binds | binding to CD39-L1 in ELISA [1]: not to any of the human isoforms
B1: I-394: anti-CD39 antibody, VH SEQ ID NO: 6, VL SEQ ID NO: 7; heavy/light chains SEQ ID NOS: 52 and 53 (antibody)
heavy: EVQLQQSGPELVKPGASVKMSCKASGYTFTDYNMHWVKQSHGRTLEWIGYIVPLNGGSTFNQKFKGRATLTVNTSSRTAYMELRSLTSEDSAAYYCARGGTRFAYWGQGTLVTVSAASTKGPSVFPLAPSSKSTSGGTAALGCLVKDYFPEPVTVSWNSGALTSGVHTFPAVLQSSGLYSLSSVVTVPSSSLGTQTYICNVNHKPSNTKVDKRVEPKSCDKTHTCPPCPAPEAEGAPSVFLFPPKPKDTLMISRTPEVTCVVVDVSHEDPEVKFNWYVDGVEVHNAKTKPREEQYNSTYRVVSVLTVLHQDWLNGKEYKCKVSNKALPSSIEKTISKAKGQPREPQVYTLPPSREEMTKNQVSLTCLVKGFYPSDIAVEWESNGQPENNYKTTPPVLDSDGSFFLYSKLTVDKSRWQQGNVFSCSVMHEALHNHYTQKSLSLSPGK
light: DIVLTQSPASLAVSLGQRATISCRASESVDNFGVSFMYWFQQKPGQPPNLLIYGASNQGSGVPARFRGSGSGTDFSLNIHPMEADDTAMYFCQQTKEVPYTFGGGTKLEIKRTVAAPSVFIFPPSDEQLKSGTASVVCLLNNFYPREAKVQWKVDNALQSGNSQESVTEQDSKDSTYSLSSTLTLSKADYEKHKVYACEVTHQGLSSPVTKSFNRGEC
modifications: Chimeric homo sapiens mus musculus
potentiation of anti-CD73 antibodies in restoring CD4 T cell proliferation (CD4 T cells; added ATP 200 μM, anti-CD39 at 0.01, 0.1, 1 μg/ml): strongly potentiation | increase in potency of anti-CD73 antibodies (CD4 T cells; anti-CD39 antibody at 0.01 μg/ml): approximately 1 log | increase in potency of anti-CD73 antibodies (CD4 T cells; anti-CD39 antibody at 0.1 μg/ml): approximately 4 log | enhancement of CD4 T cell proliferation, alone without anti-CD73 (CD4 T cells; [2]): remarkable enhancement | potentiation of anti-CD73 antibodies in restoring CD8 T cell proliferation (CD8 T cells; added ATP 200 μM): strongly potentiation | enhancement of CD8 T cell proliferation, alone without anti-CD73 (CD8 T cells; [2]): remarkable enhancement
